{"source": "the nanobody polyreactivity screen of Harvey et al. (2022)"}
{"experiment": "yeast display, Sf9 membrane polyspecificity reagent, FACS + sequencing; frameworks hold sequencing errors", "how_it_was_run": "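Sorting gates, low and high (top ~1%), were placed on anti-HA fluorescence to track expression and on streptavidin fluorescence to track reagent binding. A clone's polyreactivity label is taken from the gate it came out of. The reagent was 10% biotinylated, detergent-solubilized Sf9 membrane, applied for 1 hour at 4 °C to galactose-induced yeast display cells.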"}
{"sequence": "QVQLVESGGGLVQAGGSIRLSCAASGSIFRIYVMGWYRQAPGQERELVAAINSGGRTKYADSVKARFTISRDNAKNTVYLQMNSLKPEDTAVYYCAAAFQYRKGVSSLYASWGQGTQVTLSS", "polyreactivity (PSR sort gate)": "high polyreactivity"}
{"sequence": "QVQLVESAGGLVQAGGSLRLSCAASGIIFDTNAMGCYRQAPGKERELVASISKRGGSTYYADSVKGRFTISRDNAKNTVYLQMNSLKPEDTAVYYCNALRRRQYHDDYWGQGTQVTVSS", "polyreactivity (PSR sort gate)": "high polyreactivity"}
{"sequence": "QVQLVESGGGLVQAGGSLRLSCAASGNIFVNYAMGWYRQAPGKERELVASINYNGGNTYYADSVKGRFTISRDNAKNTVYLQMNSLKPEDTAVYYCAKDGGGLLRWYTDEYDYWGQGTQVNVSS", "polyreactivity (PSR sort gate)": "low polyreactivity"}
{"sequence": "QVQLVESGGGLVQAGGSLRLSCAASGYIIFGNAMGWYRQAPGKERELVAAIRWRGTSTYYADSVKGRFTISRDNAKNTVYLQMNSLKPEDTAVYYCAADVVRSNFYGTFLYDYDYWGQGTQVTVSS", "polyreactivity (PSR sort gate)": "low polyreactivity"}
{"sequence": "QVQLVESGGGLVQAGGSLRLRCAASGFIFIFNAMGWYRQAPGKERELVAAIDTSDDSTYYADSVKGRFTISRDNAKNTVYLQMNSLKPEDTAVYYCAAEELSNYEYWGQGTQVTVSS", "polyreactivity (PSR sort gate)": "low polyreactivity"}
{"sequence": "QVQLVESGGGLVQAGGSLRLSCAASGSTFDGNAMGWYRQAPGKDRELVAAITWRDGSPSYADSVKGRFTISRDNAKNTVYLQMNSLKPEDTAVYYCNADPGYLDEEYWGQGTQVTVSS", "polyreactivity (PSR sort gate)": "low polyreactivity"}
{"sequence": "QVQLVESGVGLVQAGGSLRLSCASSGLIFYDNMGWYRQAPGKERELVAAISSSGGSTSYADSVKGRFTISRDNAKNTVYLQMNSLKPEDTAVYYCAADYRRYGSYDYWGQGTQVTVSS", "polyreactivity (PSR sort gate)": "low polyreactivity"}
{"sequence": "QVQLVESGGGLVQEGGSLRLSCAASGGTFYNYAMGWYRQAPGKERELVAAITYSGGITYYADSVKGRFTISRDNAKNTVYLQMNRLKPEDTAVYYCAADGYGNYDQYGYWGQGTQVTVSS", "polyreactivity (PSR sort gate)": "low polyreactivity"}
{"sequence": "QVQLVESGGGLVQAGGSLRLSCAASGINFDDNTMGWYRQAPGKERELLAAISSSGGSTYYADSVKGRFTISRDNAKNTVYFQMNSLNPEDTAVYYCAAADYYTYPYIVYRNYPEFDYWGQGTQVTVSS", "polyreactivity (PSR sort gate)": "low polyreactivity"}
{"sequence": "QVQLVESGGGLVQAGGSLRLSCAASGSTFFRYAMGWYRQAPGKEREFVAAISKRGGSTHYADSVKGRFTISRDNAKNTVYLQMNSLKPEDTAVYYCAASSFTSSYNYWGQGTQVTVSS", "polyreactivity (PSR sort gate)": "high polyreactivity"}
{"sequence": "QVQLVESGGGVVQAGGSLRLSCAASGRIFVGYDMGWYRQAPGKEWELVAAINRSGSSTYYADSVKGRFTISRDNAKNTVYLQMNSLKPEDTAVYYCNDRSGNRYGPRYDYWGQGTQVTVSS", "polyreactivity (PSR sort gate)": "high polyreactivity"}
{"sequence": "QVQLVESGGGLVQAGGSLRLSCAASGSTFRFYALGWSRQAPGKERELVAAINGSGGSTYYADSVKGRFTISRDNAKNTVYLQMNSLKPEDTAVYYCAATYYILYTSWDEYWGQGTQVTVSS", "polyreactivity (PSR sort gate)": "low polyreactivity"}
{"sequence": "QVQLVESGGGLVQAGGSLRLSCAASGFTFGDYAMGWYRQAPGKEWELVAAISWSAGSTYYADSVKGRFTISRDNAKNTVYVQMNSLKPEDTAVYYCAADDSATIEDDYWGQGTQVTVSS", "polyreactivity (PSR sort gate)": "high polyreactivity"}
{"sequence": "QVQLVESGGGLVQAGGSLRLTCAASGRTFDYYAMGWYRQAPGKERELVAAIRGSGGSTYYADSVKGRFTISRDNAKNTVYLQMNSLKPEDTAVYYCATDPPYFRTPWEYDYWGQGTQVTVSS", "polyreactivity (PSR sort gate)": "low polyreactivity"}
{"sequence": "QVQLVESGGGLVQAGGSLRLSSAASGSIFSSYAMGWYRQAPGKERELVAAISTGGSTYYADSVKGRFTISRDNAKNTVYLQMNSLKPEDTAVYYCAAGIMDLKLYFSSYDYWGQGTQVTVSS", "polyreactivity (PSR sort gate)": "low polyreactivity"}
{"sequence": "QVQLVESGGGLVQAGGSLRLSCAASGITFRQYAMGWYRQAPGKERELVAVITSRGGTTYYADSVKGRFTISRDNAKNTVYLQMNSLKPEDTAVYYCAKVYGFPYYRAYFPERRNGYWGQGTQVTVSS", "polyreactivity (PSR sort gate)": "high polyreactivity"}
{"sequence": "QDQLVESGGGLVQAGGSLRLSCAASGSTFYFNAMGWYRPAPGKEREFVAVIDGSGGFTYYADSVKGRFTISRDNAKNTVYLQLNILKPEDTAVYYCNADLVYNTFFYSGGDEYDYWGQGTQVNVSS", "polyreactivity (PSR sort gate)": "high polyreactivity"}
{"sequence": "QVQLVESGGGLVQAGGSLRLSCAASGFIFNYYTMGWYRQAPGKERELVAVITGGGGSTYYADSVKGRFTISRDNAKNTVYLQMNSLKPEDTAVYYCAAEWFSWGQGTQITVSS", "polyreactivity (PSR sort gate)": "low polyreactivity"}
{"sequence": "QVQLLESGGGLVQAGGSLSLSCAASGSTFKHYAMGWYRQAPGKERELVAAISSRGGSTHYADSVKGRFTISRDNAKNTVYLQMNSLKREDTAVYYCARDTDPQSSRSSDYDYWGQGTQVSVSS", "polyreactivity (PSR sort gate)": "low polyreactivity"}
{"sequence": "QLQLVESGGGLVQAGGSLRLSCAATGSTFYDNAMGWYRQAHGKERELVARIRWSGVRTYYADSVKGRFTISRDNAKNTVYLQMNSLKPEDTAVYYCAAGRPRPHWWSLDYYYWGQGTQVTVSS", "polyreactivity (PSR sort gate)": "low polyreactivity"}
{"sequence": "QVQLVESGGGLVQAGGSLRLSCAASGRIFKYYTMVWYRQAPGKERELVAAINSRGGTTYYADSVKGRFTISRDNAKNTVYLQMNSLKPVDTAVYYCAIDRIRDAGYRGLHRFDYWGQGTQVTLSS", "polyreactivity (PSR sort gate)": "low polyreactivity"}
{"sequence": "QVQLVESGGGLVQAGGSLRLSCAASGFIFTGYAMGWYRPAPRKERELVAAITKSGGSTYYADSVKGRFTISRDNAKNTVYLQMNSLKPEDTAVYYFNTYVWRWSKGGYWGHGTQVTVSS", "polyreactivity (PSR sort gate)": "high polyreactivity"}
{"sequence": "QVQIVESGGGLVQAGGSLRLSCAASGFIFYYYDMGWYRQAPWKERELVAVLTESGSSTYYADSVKGRFTITRDNAKNNVYLQMNSLKPEDTAVYYCAADGRASVGGLGDDYWGQGTQVTVSS", "polyreactivity (PSR sort gate)": "low polyreactivity"}
{"sequence": "QVQLVESGGGLVQAGGRLRLSGAASGSIYFRNVMGWYRQAPGKERELVAAITWSGGGTYYPDSVKGRFTISRDNAKNTVYLQMNSLQPEDTAFYYCAARSPTIRYGAGYWGQVTQVTVSS", "polyreactivity (PSR sort gate)": "low polyreactivity"}
{"sequence": "QVQLVDSGGGLVQAGGSLRLSCAASGSTFTSYAMGWYRQAPGKERELVAAITGSGGRTYYADSVKGRFTISRDNAKNTVYLQMNSLKPEDTAVYYCAARKVRTVYQSRGNYWGQGTLVTVSS", "polyreactivity (PSR sort gate)": "high polyreactivity"}
{"sequence": "QVQLVESGGGLVQAGGSLRLSCAASGSTFVYNAMGWYRQAPGKERELVAAISWSDGSTYYADSVKGRFTISRDNAKNTVYLELNSLKPEDTAVYYCADEGYYSWDVHDYNYWGQGTQVTVSS", "polyreactivity (PSR sort gate)": "high polyreactivity"}
{"sequence": "QVQLVESRGGLVQAGVSLRLSCSASGSIFPYYAMGWYRQAPGKEREFVASISSVTSTYADSVKGRFTISRDNAKNTVYFQMYILIPEDTAVYYFAADRAYSWYSVSRNNYWGPGTQVTVSS", "polyreactivity (PSR sort gate)": "low polyreactivity"}
{"sequence": "QVQLVESGGGLVQAGGSLRLSCAASGSTFYTYAMGWYRQAPGKERELVAAISWRTGSTYYADSVKGRFTISRDNAKNTVYLQMNSLKPEDTAVYYCATDYYIDTWDWYEEYEYWGQGTQVTVSS", "polyreactivity (PSR sort gate)": "high polyreactivity"}
{"sequence": "QVQLVESGGGLVQAGGSLRLSCAASGRIFRTNAMGWYRQAHGKEWELVAAITRGGTTNYADSVKGRFTISRDNAKNTVYLQMNSLKPEDTAVYYCAVDQGYVVRLAWIYGYWGQGTQVTVSS", "polyreactivity (PSR sort gate)": "low polyreactivity"}
{"sequence": "QVQLVESWGGLVQAGGSLRLSCAASGSTFSPYAMGWYRQAPGKEREMVATINRGGGSTNYADSVKGRFTISRDNAKNTVYLQMNSRKPEDTAVYYCARVNAAVGYYYRYEYWGHGTQVTVSS", "polyreactivity (PSR sort gate)": "high polyreactivity"}
{"sequence": "QVQLVESGGGLVQAGGSLRLSCAASGFIFRWYAMGWSRQAPGKERELVAAISSGGSTYYADSVKGRFTISRDNAKNTVYLQMNSLKPEDTAVYYCAVRRYSEGDYWGQGTQVTVSS", "polyreactivity (PSR sort gate)": "high polyreactivity"}
{"sequence": "QVQLVESGGGLVQAGGSLRLSCAASGRTFRRYAMGWYRQAPGKERELVAVITRGGNTNYADSVKGRFTISRDNAKNTVYLQMNSLKPEDTAVYYCAAELYNYGYDYWGQGTQVTVSS", "polyreactivity (PSR sort gate)": "low polyreactivity"}
{"sequence": "QFQLVESGVVLVQAAASLRLSCAASGIIFQRNDMGWNRQAPGKETDLVANIRDGGITNADSVKGRFTISRDNAKNTVYLQMNCLKPEDTAVYYCARDDTSPGYGDQSSNAAYYYWGQGTQVTVSS", "polyreactivity (PSR sort gate)": "low polyreactivity"}
{"sequence": "QVQLVESGGGLVQAGGTLRLSCAASGSTISYYTMGWYRQAPGKERELVAAISRSGTRTYYADSVKGRFTISRDNPKNTVYLQMNSLKPEDTAFFYCAARSPFYSYTPGYEYWGQGTQVTVSS", "polyreactivity (PSR sort gate)": "high polyreactivity"}
{"sequence": "QVQLVESGGGLVQAGGSIRISCAASGSIFIIYAMGWYRQATGKEWELVAGIRGRCGSTYYADSVKGRFTISRDNAKNTVYLQMNSLKPEDTAVYYCDASVYRGYNYWGQGTQVTVSW", "polyreactivity (PSR sort gate)": "high polyreactivity"}
{"sequence": "QVQLVESGGGLVQAGGSLRLSCAASGNIFVSYDLGWYRQAPGKERELVAAISWRGGSTYYADSVKGRFTNSRDNAKNTVFLKMNSLKPEDTAVYYCSVDDWLDWLFADFGYWGQGTQVTVSS", "polyreactivity (PSR sort gate)": "low polyreactivity"}
{"sequence": "QVQLVESGGGLVQAGGCLRLSCAASGYIFRVYDMGWYRQAPGKERELVAAISGSGGRTYYADSVKGRFTISRDNAKNTVYLQMISLKPEDTAVYDCSAYRVSEYDYWGQGTQVTVSS", "polyreactivity (PSR sort gate)": "high polyreactivity"}
{"sequence": "QVQLVESGGGLVQAGGSLRLSCAASRRTFSYNTMGWYRQAPGTERELVARITWGGGSTNYADSVKGRFTISRDNAKNTVYLQMNSLKPEDTAVYYCAAGPSVPYGPQKVDYWGQGTQVTVSS", "polyreactivity (PSR sort gate)": "low polyreactivity"}
{"sequence": "QVQLVESGGGLVQAGGSLRLICAASGLTFKQYVMGWYRQAPGKERELVAAIHNGTSTYYADSVKGRFTISRDNAKNTVYLQMNSLKPEDTAVYYCAADGLGFNTYDYWGQGTQVTVSS", "polyreactivity (PSR sort gate)": "low polyreactivity"}
{"sequence": "QVQLVESGGGLVQAGGSLRLSCAASGSIFNYYAMGWYRQAPGKERELVATISSGGNTKYADSVKGRFTISRDNAKNTVYLQMNSLKPEDTAVYYCAARWQHSGYRDRYWYDYWGQGTQVTVSS", "polyreactivity (PSR sort gate)": "low polyreactivity"}
{"sequence": "QVQLVESGGGLVQAGGSLRLSCAASGRTFYVNAMGWYRQAPGKERELVAAIRYSDGRTYYADSVKGRFTISRDNAKNTVYLQMNSLKPEDTAVYYCAVGSRSWPYDYWGQGTQVTVSS", "polyreactivity (PSR sort gate)": "high polyreactivity"}
{"sequence": "QVQLVESGGGLVQAGGSLRLSCAASGSTLYWYAMGWYRQAPGKERELVAVITSSGVSTYYADSVKGRFTISRDNAKNTVYLQMNSLKPEDTAVYYCNAKWYGWQRGTVKYDYWGQGTQVTVSS", "polyreactivity (PSR sort gate)": "low polyreactivity"}
{"sequence": "QVQLVESGGGLVQAGGSLRLSCAASGFIFAINAMGWYRQAPGKEREFVAAISSDGASTYYADSVKGRFTISRDNAKNTVYLQMNSLKPEDTAVYYCNAVPYEWTYPYEYYYWGQGTQVTVSS", "polyreactivity (PSR sort gate)": "low polyreactivity"}
